The results in this text go back to the supplement of paper PMC11316812.

± gives the standard deviation of the averaged measurements.

For data set [1], the system named is MCF7. The data set can be described thus: percentage of EdU-negative (G0-arrested) nuclei per well, 72 h; higher = more G0 arrest. Conditions: reference: sequence is the full UniProt precursor, the tested protein was the secreted form or ectodomain.
For data set [2], the system named is hTERT-HMEC. The description is as above. Particulars: reference: sequence is the full UniProt precursor, the tested protein was the secreted form or ectodomain.
Setting [3] is: protein concentration 0.02025 µM.
[4] abbreviates: protein concentration 0.2025 µM.
The mark [5] stands for this setting: protein concentration 0.0225 µM.
[6] abbreviates: protein concentration 0.01975 µM.
Setting [7] is: protein concentration 0.1975 µM.
Where [8] appears, read: protein concentration 0.0079375 µM.
The mark [9] stands for this setting: protein concentration 0.00885714 µM.
Setting [10] is: protein concentration 0.0357143 µM.
Setting [11] is: protein concentration 0.079375 µM.
[12] abbreviates: protein concentration 0.0885714 µM.
Where [13] appears, read: protein concentration 0.357143 µM.
The mark [14] stands for this setting: protein concentration 0.0257143 µM.
Setting [15] is: protein concentration 0.257143 µM.
[16] abbreviates: protein concentration 0.00825 µM.
Where [17] appears, read: protein concentration 0.0825 µM.
Where [18] appears, read: protein concentration 0.012845 µM.
[19] abbreviates: protein concentration 0.12845 µM.
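Note: secreted proteins added to cultured cells, EdU pulse at the end, nuclei found by Hoechst imaging, EdU status from nuclear versus surrounding ring intensity ratio, PBS as neutral control.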

Take “MKPATGLWVWVSLLVAAGTVQPSDSQSVCAGTENKLSSLSDLEQQYRALRKYYENCEVVMGNLEITSIEHNRDLSFLRSVREVTGYVLVALNQFRYLPLENLRIIRGTKLYEDRYALAIFLNYRKDGNFGLQELGLKNLTEILNGGVYVDQNKFLCYADTIHWQDIVRNPWPSNLTLVSTNGSSGCGRCHKSCTGRCWGPTENHCQTLTRTVCAEQCDGRCYGPYVSDCCHRECAGGCSGPKDTDCFACMNFNDSGACVTQCPQTFVYNPTTFQLEHNFNAKYTYGAFCVKKCPHNFVVDSSSCVRACPSSKMEVEENGIKMCKPCTDICPKACDGIGTGSLMSAQTVDSSNIDKFINCTKINGNLIFLVTGIHGDPYNAIEAIDPEKLNVFRTVREITGFLNIQSWPPNMTDFSVFSNLVTIGGRVLYSGLSLLILKQQGITSLQFQSLKEISAGNIYITDNSNLCYYHTINWTTLFSTINQRIVIRDNRKAENCTAEGMVCNHLCSSDGCWGPGPDQCLSCRRFSRGRICIESCNLYDGEFREFENGSICVECDPQCEKMEDGLLTCHGPGPDNCTKCSHFKDGPNCVEKCPDGLQGANSFIFKYADPDRECHPCHPNCTQGCNGPTSHDCIYYPWTGHSTLPQHARTPLIAAGVIGGLFILVIVGLTFAVYVRRKSIKKKRALRRFLETELVEPLTPSGTAPNQAQLRILKETELKRVKVLGSGAFGTVYKGIWVPEGETVKIPVAIKILNETTGPKANVEFMDEALIMASMDHPHLVRLLGVCLSPTIQLVTQLMPHGCLLEYVHEHKDNIGSQLLLNWCVQIAKGMMYLEERRLVHRDLAARNVLVKSPNHVKITDFGLARLLEGDEKEYNADGGKMPIKWMALECIHYRKFTHQSDVWSYGVTIWELMTFGGKPYDGIPTREIPDLLEKGERLPQPPICTIDVYMVMVKCWMIDADSRPKFKELAAEFSRMARDPQRYLVIQGDDRMKLPSPNDSKFFQNLLDEEDLEDMMDAEEYLVPQAFNIPPPIYTSRARIDSNRSEIGHSPPPAYTPMSGNQFVYRDGGFAAEQGVSVPYRAPTSTIPEAPVAQGATAEIFDDSCCNGTLRKPVAPHVQEDSSTQRYSADPTVFAPERSPRGELDEEGYMTPMRDKPKQEYLNPVEENPFVSRRKNGDLQALDNPEYHNASNGPPKAEDEYVNEPLYLNTFANTLGKAEYLKNNILSMPEKAKKAFDNPDYWNHSLPPRSTLQHPDYLQEYSTKYFYKQNGRIRPIVAENPEYLSEFSLKPGTVLPPPPYRHRNTVV”: the “percentage of EdU-negative” value in data set [1] (setting [3]) came out at 26.2 ± 1.2%; in data set [1] (setting [4]), 25.4 ± 1.2%; in data set [2] (setting [3]) it was 4.75 ± 0.55%; in data set [2] (setting [4]), 7.8 ± 0.72%.

On to “MKPLLVVFVFLFLWDPVLAGINSLSSEMHKKCYKNGICRLECYESEMLVAYCMFQLECCVKGNPAP [Q4QY38]”, for which the “percentage of EdU-negative” value in data set [1] (setting [5]) turned out to be 26.33 ± 0.082%; in data set [1] (protein concentration 0.225 µM), 27 ± 0.67%; in data set [2] (setting [5]), 4.56 ± 0.45%; in data set [2] (protein concentration 0.225 µM), 5.39 ± 1.7%.

On to “MKPNIIFVLSLLLILEKQAAVMGQKGGSKGRLPSEFSQFPHGQKGQHYSGQKGKQQTESKGSFSIQYTYHVDANDHDQSRKSQQYDLNALHKTTKSQRHLGGSQQLLHNKQEGRDHDKSKGHFHRVVIHHKGGKAHRGTQNPSQDQGNSPSGKGISSQYSNTEERLWVHGLSKEQTSVSGAQKGRKQGGSQSSYVLQTEELVANKQQRETKNSHQNKGHYQNVVEVREEHSSKVQTSLCPAHQDKLQHGSKDIFSTQDELLVYNKNQHQTKNLNQDQQHGRKANKISYQSSSTEERRLHYGENGVQKDVSQSSIYSQTEEKAQGKSQKQITIPSQEQEHSQKANKISYQSSSTEERRLHYGENGVQKDVSQRSIYSQTEKLVAGKSQIQAPNPKQEPWHGENAKGESGQSTNREQDLLSHEQKGRHQHGSHGGLDIVIIEQEDDSDRHLAQHLNNDRNPLFT”, for which the “percentage of EdU-negative” value came to 28.4 ± 1.1% in data set [1] (protein concentration 0.005 µM), 25.85 ± 0.061% in data set [1] (protein concentration 0.05 µM), 6.42 ± 0.18% in data set [2] (protein concentration 0.005 µM) and 6.06 ± 1.2% in data set [2] (protein concentration 0.05 µM).

“MKPPFLLALVVCSVVSTNLKMVSKRNSVDGCIDWSVDLKTYMALAGEPVRVKCALFYSYIRTNYSTAQSTGLRLMWYKNKGDLEEPIIFSEVRMSKEEDSIWFHSAEAQDSGFYTCVLRNSTYCMKVSMSLTVAENESGLCYNSRIRYLEKSEVTKRKEISCPDMDDFKKSDQEPDVVWYKECKPKMWRSIIIQKGNALLIQEVQEEDGGNYTCELKYEGKLVRRTTELKVTALLTDKPPKPLFPMENQPSVIDVQLGKPLNIPCKAFFGFSGESGPMIYWMKGEKFIEELAGHIREGEIRLLKEHLGEKEVELALIFDSVVEADLANYTCHVENRNGRKHASVLLRKKDLIYKIELAGGLGAIFLLLVLLVVIYKCYNIELMLFYRQHFGADETNDDNKEYDAYLSYTKVDQDTLDCDNPEEEQFALEVLPDVLEKHYGYKLFIPERDLIPSGTYMEDLTRYVEQSRRLIIVLTPDYILRRGWSIFELESRLHNMLVSGEIKVILIECTELKGKVNCQEVESLKRSIKLLSLIKWKGSKSSKLNSKFWKHLVYEMPIKKKEMLPRCHVLDSAEQGLFGELQPIPSIAMTSTSATLVSSQADLPEFHPSDSMQIRHCCRGYKHEIPATTLPVPSLGNHHTYCNLPLTLLNGQLPLNNTLKDTQEFHRNSSLLPLSSKELSFTSDIW [Q9NP60]”: the “percentage of EdU-negative” value in data set [1] (setting [6]) is 24.9 ± 2.6%; in data set [1] (setting [7]), 26.8 ± 1.9%; in data set [2] (setting [6]), 4.91 ± 0.99%; in data set [2] (setting [7]) it was 8.95 ± 0.26%.

“MKPPRPVRTCSKVLVLLSLLAIHQTTTAEKNGIDIYSLTVDSRVSSRFAHTVVTSRVVNRANTVQEATFQMELPKKAFITNFSMIIDGMTYPGIIKEKAEAQAQYSAAVAKGKSAGLVKATGRNMEQFQVSVSVAPNAKITFELVYEELLKRRLGVYELLLKVRPQQLVKHLQMDIHIFEPQGISFLETESTFMTNQLVDALTTWQNKTKAHIRFKPTLSQQQKSPEQQETVLDGNLIIRYDVDRAISGGSIQIENGYFVHYFAPEGLTTMPKNVVFVIDKSGSMSGRKIQQTREALIKILDDLSPRDQFNLIVFSTEATQWRPSLVPASAENVNKARSFAAGIQALGGTNINDAMLMAVQLLDSSNQEERLPEGSVSLIILLTDGDPTVGETNPRSIQNNVREAVSGRYSLFCLGFGFDVSYAFLEKLALDNGGLARRIHEDSDSALQLQDFYQEVANPLLTAVTFEYPSNAVEEVTQNNFRLLFKGSEMVVAGKLQDRGPDVLTATVSGKLPTQNITFQTESSVAEQEAEFQSPKYIFHNFMERLWAYLTIQQLLEQTVSASDADQQALRNQALNLSLAYSFVTPLTSMVVTKPDDQEQSQVAEKPMEGESRNRNVHSGSTFFKYYLQGAKIPKPEASFSPRRGWNRQAGAAGSRMNFRPGVLSSRQLGLPGPPDVPDHAAYHPFRRLAILPASAPPATSNPDPAVSRVMNMKIEETTMTTQTPAPIQAPSAILPLPGQSVERLCVDPRHRQGPVNLLSDPEQGVEVTGQYEREKAGFSWIEVTFKNPLVWVHASPEHVVVTRNRRSSAYKWKETLFSVMPGLKMTMDKTGLLLLSDPDKVTIGLLFWDGRGEGLRLLLRDTDRFSSHVGGTLGQFYQEVLWGSPAASDDGRRTLRVQGNDHSATRERRLDYQEGPPGVEISCWSVEL”: the “percentage of EdU-negative” value in data set [1] (setting [8]) worked out at 26.1 ± 0.6%; in data set [1] (setting [9]), 24.7 ± 1.9%; in data set [1] (setting [10]), 25.598 ± 0.0074%; in data set [1] (setting [11]), 27.8 ± 0.46%; in data set [1] (setting [12]), 22.7 ± 1.4%; in data set [1] (setting [13]), 24.7 ± 1.2%. The “percentage of EdU-negative” value in data set [2] (setting [8]) amounted to 4.26 ± 0.31%; in data set [2] (setting [9]), 5.26 ± 0.59%; in data set [2] (setting [10]) it was 4.65 ± 0.14%; in data set [2] (setting [11]), 6.25 ± 0.86%; in data set [2] (setting [12]) it was 5.26 ± 0.17%; in data set [2] (setting [13]), 5.86 ± 0.71%.

For “MKPVLPLQFLVVFCLALQLVPGSPKQRVLKYILEPPPCISAPENCTHLCTMQEDCEKGFQCCSSFCGIVCSSETFQKRNRIKHKGSEVIMPAN [Q8IUB5]”, the “percentage of EdU-negative” value is 25.88 ± 0.11% in data set [1] (setting [5]), 23.6 ± 1% in data set [1] (protein concentration 0.225 µM), 4.99 ± 0.22% in data set [2] (setting [5]) and 5.21 ± 0.23% in data set [2] (protein concentration 0.225 µM).

For “MKPWILLLVMFISGVVMLLPVLGSFWNKDPFLDMIRETEQCWVQPPYKYCEKRCTKIMTCVRPNHTCCWTYCGNICLDNEEPLKSMLNP [Q8NEX5]”, the “percentage of EdU-negative” value in data set [1] (setting [14]) was 26 ± 0.26%; in data set [1] (setting [15]) it was 26.31 ± 0.064%; in data set [2] (setting [14]), 5.54 ± 0.81%; in data set [2] (setting [15]), 5.1 ± 0.81%.

Regarding “MKQKMMARLLRTSFALLFLGLFGVLGAATISCRNEEGKAVDWFTFYKLPKRQNKESGETGLEYLYLDSTTRSWRKSEQLMNDTKSVLGRTLQQLYEAYASKSNNTAYLIYNDGVPKPVNYSRKYGHTKGLLLWNRVQGFWLIHSIPQFPPIPEEGYDYPPTGRRNGQSGICITFKYNQYEAIDSQLLVCNPNVYSCSIPATFHQELIHMPQLCTRASSSEIPGRLLTTLQSAQGQKFLHFAKSDSFLDDIFAAWMAQRLKTHLLTETWQRKRQELPSNCSLPYHVYNIKAIKLSRHSYFSSYQDHAKWCISQKGTKNRWTCIGDLNRSPHQAFRSGGFICTQNWQIYQAFQGLVLYYESCK [Q8WZ79]”, the “percentage of EdU-negative” value in data set [1] (setting [16]) came out at 28.9 ± 1.8%; in data set [1] (setting [17]), 32.3 ± 0.53%; in data set [2] (setting [16]) it was 5.48 ± 0.48%; in data set [2] (setting [17]) it was 15.5 ± 1.6%.

On to “MKRLVCVLLVCSSAVAQLHKDPTLDHHWHLWKKTYGKQYKEKNEEAVRRLIWEKNLKFVMLHNLEHSMGMHSYDLGMNHLGDMTSEEVMSLMSSLRVPSQWQRNITYKSNPNRILPDSVDWREKGCVTEVKYQGSCGACWAFSAVGALEAQLKLKTGKLVSLSAQNLVDCSTEKYGNKGCNGGFMTTAFQYIIDNKGIDSDASYPYKAMDQKCQYDSKYRAATCSKYTELPYGREDVLKEAVANKGPVSVGVDARHPSFFLYRSGVYYEPSCTQNVNHGVLVVGYGDLNGKEYWLVKNSWGHNFGEEGYIRMARNKGNHCGIASFPSYPEI”, for which the “percentage of EdU-negative” value in data set [1] (setting [5]) amounted to 25.8 ± 0.69%; in data set [1] (protein concentration 0.225 µM), 28.92 ± 0.25%; in data set [2] (setting [5]), 4.72 ± 0.47%; in data set [2] (protein concentration 0.225 µM), 9.97 ± 2.1%.

Turning to “MKRSVAVWLLVGLSLGVPQFGKGDICDPNPCENGGICLPGLADGSFSCECPDGFTDPNCSSVVEVASDEEEPTSAGPCTPNPCHNGGTCEISEAYRGDTFIGYVCKCPRGFNGIHCQHNINECEVEPCKNGGICTDLVANYSCECPGEFMGRNCQYKCSGPLGIEGGIISNQQITASSTHRALFGLQKWYPYYARLNKKGLINAWTAAENDRWPWIQINLQRKMRVTGVITQGAKRIGSPEYIKSYKIAYSNDGKTWAMYKVKGTNEDMVFRGNIDNNTPYANSFTPPIKAQYVRLYPQVCRRHCTLRMELLGCELSGCSEPLGMKSGHIQDYQITASSIFRTLNMDMFTWEPRKARLDKQGKVNAWTSGHNDQSQWLQVDLLVPTKVTGIITQGAKDFGHVQFVGSYKLAYSNDGEHWTVYQDEKQRKDKVFQGNFDNDTHRKNVIDPPIYARHIRILPWSWYGRITLRSELLGCTEEE”, the “percentage of EdU-negative” value was determined as 25.7 ± 1.6% in data set [1] (setting [18]), 30.6 ± 1.9% in data set [1] (setting [19]), 4.79 ± 0.32% in data set [2] (setting [18]) and 47.8 ± 1.9% in data set [2] (setting [19]).
